Laboratory results: patent US20150125904A1, “PROBE INCORPORATION MEDIATED BY ENZYMES” (Massachusetts Institute of Technology, priority 2012, published 2015)

Key:
[1] = test system: O=C(O)CCCNC(=O)c1cc2cc(F)c(O)c(F)c2oc1=O; assay: purified protein, by the assay type; details: other: ligation to LAP, 2 μM ligase, 600 μM LAP; pH 7.2
[2] = molecular target: biotinylated LAP-mCherry fusion protein; assay: gel shift on SDS-PAGE of HEK cell lysate incubated with 5 µM streptavidin, in-gel mCherry fluorescence

E20G/W37TLplA (Escherichia coli K-12; E21G/W38T)
Km [1]: 17.5 ± 4.3 µM | kcat [1]: 0.014 ± 0.001 s⁻¹

streptavidin protein (from UniProt P22629 37-163)
percent of LAP-mCherry shifted up to ~80 kD [2]: 21%
